Test results published in patent US20230272029A1, “CO-AGONISTS AT GLP-1 AND GIP RECEPTORS SUITABLE FOR ORAL DELIVERY” (Novo Nordisk A/S, priority 2020, published 2023).
Starred links: 1 amine or outer side, 2 acyl side, 3 side chain; linkers in the order of their positions; H or OH if unused. Non-standard residues stand in square brackets, D forms with d. Groups on a side chain read outwards from the residue. No end group written: not given here. *: point of attachment. C18 diacid = O=C(O)CCCCCCCCCCCCCCCCC(=O)*; γGlu = O=C(O)[C@H](CCC(=O)[*:2])N[*:1]; εLys = N[C@@H](CCCCN[*:1])C(=O)[*:2]; AEEA = NCCOCCOCC(=O)O; Aib = CC(C)(N)C(=O)O

Columns and labels:
[1] = molecular target: human GLP-1 receptor (human, UniProt P43220 24-463); test: cell-based or functional assay
[2] = molecular target: T1, human GIP receptor (human, UniProt P48546 22-466); test: cell-based or functional assay
T1 sequence (looked up): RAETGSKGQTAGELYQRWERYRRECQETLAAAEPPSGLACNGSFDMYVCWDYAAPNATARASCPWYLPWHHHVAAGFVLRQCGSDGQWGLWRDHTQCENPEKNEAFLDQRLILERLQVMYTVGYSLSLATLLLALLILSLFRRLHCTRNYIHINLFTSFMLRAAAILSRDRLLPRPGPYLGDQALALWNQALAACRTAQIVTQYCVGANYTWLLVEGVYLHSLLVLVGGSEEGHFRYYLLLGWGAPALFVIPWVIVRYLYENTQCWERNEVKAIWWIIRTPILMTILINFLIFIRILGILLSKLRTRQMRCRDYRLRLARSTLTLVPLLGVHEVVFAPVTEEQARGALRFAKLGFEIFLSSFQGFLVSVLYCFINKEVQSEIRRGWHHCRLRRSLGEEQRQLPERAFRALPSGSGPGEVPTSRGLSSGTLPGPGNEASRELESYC

B1: Compound No. 40 (peptide)
peptide: Y[Aib]EGTFTSDYSK([εLys-εLys-γGlu-C18 diacid])LLEEQAAREFIEWLLAGGPSSGAPPPS-OH
modifications: N-terminus assumed
SMILES: CC[C@H](C)[C@H](NC(=O)[C@H](Cc1ccccc1)NC(=O)[C@H](CCC(=O)O)NC(=O)[C@H](CCCNC(=N)N)NC(=O)[C@H](C)NC(=O)[C@H](C)NC(=O)[C@H](CCC(N)=O)NC(=O)[C@H](CCC(=O)O)NC(=O)[C@H](CCC(=O)O)NC(=O)[C@H](CC(C)C)NC(=O)[C@H](CC(C)C)NC(=O)[C@H](CCCCNC(=O)[C@@H](N)CCCCNC(=O)[C@@H](N)CCCCNC(=O)CC[C@H](NC(=O)CCCCCCCCCCCCCCCCC(=O)O)C(=O)O)NC(=O)[C@H](CO)NC(=O)[C@H](Cc1ccc(O)cc1)NC(=O)[C@H](CC(=O)O)NC(=O)[C@H](CO)NC(=O)[C@@H](NC(=O)[C@H](Cc1ccccc1)NC(=O)[C@@H](NC(=O)CNC(=O)[C@H](CCC(=O)O)NC(=O)C(C)(C)NC(=O)[C@@H](N)Cc1ccc(O)cc1)[C@@H](C)O)[C@@H](C)O)C(=O)N[C@@H](CCC(=O)O)C(=O)N[C@@H](Cc1c[nH]c2ccccc12)C(=O)N[C@@H](CC(C)C)C(=O)N[C@@H](CC(C)C)C(=O)N[C@@H](C)C(=O)NCC(=O)NCC(=O)N1CCC[C@H]1C(=O)N[C@@H](CO)C(=O)N[C@@H](CO)C(=O)NCC(=O)N[C@@H](C)C(=O)N1CCC[C@H]1C(=O)N1CCC[C@H]1C(=O)N1CCC[C@H]1C(=O)N[C@@H](CO)C(=O)O
For B1, the “hGLP-1R, CRE Luc 0% HSA EC50 (pM)” value [1] was 6.4 pM, the “hGLP-1R, CRE Luc 1% HSA EC50 (pM)” value [1] was 334 pM and the “hGIPR, CRE Luc 0% HSA EC50 (pM)” value [2] was 9.5 pM. The “hGIPR, CRE Luc 1% HSA EC50 (pM)” value [2] was 501 pM.

B2: Compound No. 31 (peptide)
peptide: Y[Aib]EGTFTSDYSILLEK([εLys-εLys-γGlu-C18 diacid])QAAREFIEWLLAGGPSSGAPPPS-OH
modifications: N-terminus assumed
SMILES: CC[C@H](C)[C@H](NC(=O)[C@H](Cc1ccccc1)NC(=O)[C@H](CCC(=O)O)NC(=O)[C@H](CCCNC(=N)N)NC(=O)[C@H](C)NC(=O)[C@H](C)NC(=O)[C@H](CCC(N)=O)NC(=O)[C@H](CCCCNC(=O)[C@@H](N)CCCCNC(=O)[C@@H](N)CCCCNC(=O)CC[C@H](NC(=O)CCCCCCCCCCCCCCCCC(=O)O)C(=O)O)NC(=O)[C@H](CCC(=O)O)NC(=O)[C@H](CC(C)C)NC(=O)[C@H](CC(C)C)NC(=O)[C@@H](NC(=O)[C@H](CO)NC(=O)[C@H](Cc1ccc(O)cc1)NC(=O)[C@H](CC(=O)O)NC(=O)[C@H](CO)NC(=O)[C@@H](NC(=O)[C@H](Cc1ccccc1)NC(=O)[C@@H](NC(=O)CNC(=O)[C@H](CCC(=O)O)NC(=O)C(C)(C)NC(=O)[C@@H](N)Cc1ccc(O)cc1)[C@@H](C)O)[C@@H](C)O)[C@@H](C)CC)C(=O)N[C@@H](CCC(=O)O)C(=O)N[C@@H](Cc1c[nH]c2ccccc12)C(=O)N[C@@H](CC(C)C)C(=O)N[C@@H](CC(C)C)C(=O)N[C@@H](C)C(=O)NCC(=O)NCC(=O)N1CCC[C@H]1C(=O)N[C@@H](CO)C(=O)N[C@@H](CO)C(=O)NCC(=O)N[C@@H](C)C(=O)N1CCC[C@H]1C(=O)N1CCC[C@H]1C(=O)N1CCC[C@H]1C(=O)N[C@@H](CO)C(=O)O
In the case of B2, the “hGLP-1R, CRE Luc 0% HSA EC50 (pM)” value [1] is reported as 4.2 pM, the “hGLP-1R, CRE Luc 1% HSA EC50 (pM)” value [1] is reported as 202 pM and the “hGIPR, CRE Luc 0% HSA EC50 (pM)” value [2] is reported as 4.7 pM. The “hGIPR, CRE Luc 1% HSA EC50 (pM)” value [2] was 188 pM.

B3: Compound No. 32 (peptide)
peptide: Y[Aib]EGTFTSDYSILLEK([AEEA-AEEA-γGlu-C18 diacid])QAAREFIEWLLAGGPSSGAPPPS-OH
modifications: N-terminus assumed
SMILES: CC[C@H](C)[C@H](NC(=O)[C@H](Cc1ccccc1)NC(=O)[C@H](CCC(=O)O)NC(=O)[C@H](CCCNC(=N)N)NC(=O)[C@H](C)NC(=O)[C@H](C)NC(=O)[C@H](CCC(N)=O)NC(=O)[C@H](CCCCNC(=O)COCCOCCNC(=O)COCCOCCNC(=O)CC[C@H](NC(=O)CCCCCCCCCCCCCCCCC(=O)O)C(=O)O)NC(=O)[C@H](CCC(=O)O)NC(=O)[C@H](CC(C)C)NC(=O)[C@H](CC(C)C)NC(=O)[C@@H](NC(=O)[C@H](CO)NC(=O)[C@H](Cc1ccc(O)cc1)NC(=O)[C@H](CC(=O)O)NC(=O)[C@H](CO)NC(=O)[C@@H](NC(=O)[C@H](Cc1ccccc1)NC(=O)[C@@H](NC(=O)CNC(=O)[C@H](CCC(=O)O)NC(=O)C(C)(C)NC(=O)[C@@H](N)Cc1ccc(O)cc1)[C@@H](C)O)[C@@H](C)O)[C@@H](C)CC)C(=O)N[C@@H](CCC(=O)O)C(=O)N[C@@H](Cc1c[nH]c2ccccc12)C(=O)N[C@@H](CC(C)C)C(=O)N[C@@H](CC(C)C)C(=O)N[C@@H](C)C(=O)NCC(=O)NCC(=O)N1CCC[C@H]1C(=O)N[C@@H](CO)C(=O)N[C@@H](CO)C(=O)NCC(=O)N[C@@H](C)C(=O)N1CCC[C@H]1C(=O)N1CCC[C@H]1C(=O)N1CCC[C@H]1C(=O)N[C@@H](CO)C(=O)O
With B3 the “hGLP-1R, CRE Luc 0% HSA EC50 (pM)” value [1] was 5 pM, the “hGLP-1R, CRE Luc 1% HSA EC50 (pM)” value [1] was 982 pM and the “hGIPR, CRE Luc 0% HSA EC50 (pM)” value [2] was 7.1 pM. For the same binder, the “hGIPR, CRE Luc 1% HSA EC50 (pM)” value [2] was 679 pM.

B4: Compound No. 42 (peptide)
peptide: Y[Aib]EGTFTSDYSIYLEEQAAREFINWLLAGGPSK([εLys-εLys-γGlu-C18 diacid])GAPPPS-OH
modifications: N-terminus assumed
SMILES: CC[C@H](C)[C@H](NC(=O)[C@H](Cc1ccccc1)NC(=O)[C@H](CCC(=O)O)NC(=O)[C@H](CCCNC(=N)N)NC(=O)[C@H](C)NC(=O)[C@H](C)NC(=O)[C@H](CCC(N)=O)NC(=O)[C@H](CCC(=O)O)NC(=O)[C@H](CCC(=O)O)NC(=O)[C@H](CC(C)C)NC(=O)[C@H](Cc1ccc(O)cc1)NC(=O)[C@@H](NC(=O)[C@H](CO)NC(=O)[C@H](Cc1ccc(O)cc1)NC(=O)[C@H](CC(=O)O)NC(=O)[C@H](CO)NC(=O)[C@@H](NC(=O)[C@H](Cc1ccccc1)NC(=O)[C@@H](NC(=O)CNC(=O)[C@H](CCC(=O)O)NC(=O)C(C)(C)NC(=O)[C@@H](N)Cc1ccc(O)cc1)[C@@H](C)O)[C@@H](C)O)[C@@H](C)CC)C(=O)N[C@@H](CC(N)=O)C(=O)N[C@@H](Cc1c[nH]c2ccccc12)C(=O)N[C@@H](CC(C)C)C(=O)N[C@@H](CC(C)C)C(=O)N[C@@H](C)C(=O)NCC(=O)NCC(=O)N1CCC[C@H]1C(=O)N[C@@H](CO)C(=O)N[C@@H](CCCCNC(=O)[C@@H](N)CCCCNC(=O)[C@@H](N)CCCCNC(=O)CC[C@H](NC(=O)CCCCCCCCCCCCCCCCC(=O)O)C(=O)O)C(=O)NCC(=O)N[C@@H](C)C(=O)N1CCC[C@H]1C(=O)N1CCC[C@H]1C(=O)N1CCC[C@H]1C(=O)N[C@@H](CO)C(=O)O
For B4, the “hGLP-1R, CRE Luc 0% HSA EC50 (pM)” value [1] was 2.3 pM, the “hGLP-1R, CRE Luc 1% HSA EC50 (pM)” value [1] was 83.5 pM and the “hGIPR, CRE Luc 0% HSA EC50 (pM)” value [2] was 5.9 pM. For the same binder, the “hGIPR, CRE Luc 1% HSA EC50 (pM)” value [2] was 306 pM.
